{"source": "paper PMC5521201", "binders": {"B1": {"name": "CTCF WT (BZLF1 promoter CTCF site) (dsDNA)", "DNA 1": "TCGTCCAAATGGCCACGAGGGGGCGGGTGGCTCAGGTC", "DNA 2": "GACCTGAGCCACCCGCCCCCTCGTGGCCATTTGGACGA"}}, "biological_target": "T1, CTCF (UniProt P49711 1-727)", "T1 sequence": "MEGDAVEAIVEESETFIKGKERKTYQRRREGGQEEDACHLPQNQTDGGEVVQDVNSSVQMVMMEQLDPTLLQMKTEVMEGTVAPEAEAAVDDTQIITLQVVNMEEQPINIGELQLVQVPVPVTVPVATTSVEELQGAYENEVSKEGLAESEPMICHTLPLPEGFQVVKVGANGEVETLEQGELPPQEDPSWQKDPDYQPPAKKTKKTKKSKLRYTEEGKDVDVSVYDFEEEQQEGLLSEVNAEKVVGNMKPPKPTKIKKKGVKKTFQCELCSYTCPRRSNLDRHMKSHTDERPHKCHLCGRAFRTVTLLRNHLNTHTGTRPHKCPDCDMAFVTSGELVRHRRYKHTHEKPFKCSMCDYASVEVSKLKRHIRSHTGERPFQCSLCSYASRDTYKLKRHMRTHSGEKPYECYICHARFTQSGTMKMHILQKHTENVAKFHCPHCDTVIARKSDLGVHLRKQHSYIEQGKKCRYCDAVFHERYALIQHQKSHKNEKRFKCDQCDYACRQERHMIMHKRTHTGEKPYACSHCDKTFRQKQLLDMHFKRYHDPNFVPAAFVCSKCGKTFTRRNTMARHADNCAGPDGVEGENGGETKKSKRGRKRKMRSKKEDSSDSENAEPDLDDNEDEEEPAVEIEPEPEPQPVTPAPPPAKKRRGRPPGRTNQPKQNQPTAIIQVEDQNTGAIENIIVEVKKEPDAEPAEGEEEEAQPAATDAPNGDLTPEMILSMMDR", "test": "EMSA", "data": [{"binder": "B1", "values": [{"measurement": "binding result", "result": "binds"}]}]}
